Experimental data published in patent US20240124568A1, “CHEMERIN INHIBITORS AND USES THEREOF FOR TREATING KIDNEY CANCER” (University of Miami, priority 2022, published 2024).
Entries after “also recorded” stand apart in the source; their conditions may differ.

Legend:
[1] = system: chemerin-knockdown 786-O cells; assay: Cell proliferation assay, rescue in chemerin-knockdown 786-O cells; format: cell-based, human
Description: Cell Proliferation Assay. Cells were plated at a density of 100,000 cells in triplicate wells of a 6-well plate, supplemented with DMEM containing 10% FBS. Cells were trypsinized and were counted using the Cell Counter Countess II (Life Technologies) at days 3, 6, 9 and 12.

786-O and 769-P cells = assay: EdU incorporation assay (DNA synthesis); format: cell-based, human; details: chemerin-knockdown 786-O cells, etomoxir 50 μM and 100 μM, EdU flow cytometry
Description: EdU incorporation assay. […] After incubation, the cells were fixed with 3.7% formaldehyde/PBS for 15 minutes at room temperature and washed with 1 mL of 3% BSA/PBS twice. 1 mL of 0.5% TritonX-100 in PBS was added for 20 minutes at room temperature to permeabilize the cells. Next, cells were incubated with 0.5 mL of Click-iT reaction cocktail (Invitrogen, Cat #C10337) prepared according to manufacturer's instructions, at room temperature for 30 minutes and away from direct light. DAPI (Millipore, Cat #268298) was added later for DNA staining. […]

HIF2α mRNA in 786-O = assay: qRT-PCR of HIF1α and HIF2α after fatty acid incubation; format: cell-based, human; details: 500 μM fatty acid for 24 hours
Description: RNA Isolation and Real Time Quantitative Polymerase Chain Reaction (qRT-PCR). Total RNA was extracted using TRIzol reagent (Invitrogen, Cat #15596018). The concentration and quality of RNA were determined using a NanoDrop 1000 spectrophotometer (Thermo). 500 ng of RNA was used to synthesize cDNA using the Quantabio qScript cDNA SuperMix (Quantabio, Cat #95048-100) according to the manufacturer's recommendations. The cDNA was diluted by 10-fold before used for qRT-PCR gene expression analysis. qRT-PCR was performed using Power SYBR Green PCR Master Mix (Applied Biosystems, Cat #4367659) and SYBR Green primers (Table 3). The Ct values of the gene of interest was normalized to the Ct value of the housekeeping control, β-actin. The fold change was then calculated using the 2^−ΔΔCt method. Sodium palmitate preparation and supplementation. To prepare BSA-palmitate conjugate, sodium palmitate (Thermo, Cat #P0500) was added to a NaCl solution and heated in a water bath while stirring. The hot palmitate solution was mixed with BSA solution, 5 mL at a time. The final volume was adjusted with 150 mM NaCl for 1 mM palmitate solution and pH was adjusted to 7.4. Sodium palmitate solution was added to cell at final concentration 500 μM and incubated for 24 hours.

[2] = system: HIF2α and chemerin protein in 786-O and 769-P cells; assay: Immunoblots of lysates after fatty acid treatment; format: cell-based, human; details: 500 μM fatty acid
Description: Protein Extraction and Western blotting. The cells were washed with 1× ice-cold PBS (GE, Cat #SH30256.01) once before they were lysed in RIPA lysis buffer (50 mM Tris-HCl, pH 7.5; 150 mM NaCl; 0.5% NP-40; 50 mM NaF) and scraped from the plate on ice. The RIPA lysis buffer contained 1:1000 1× protease inhibitor cocktail (Sigma-Aldrich) and 1:100 1× phosphatase inhibitor (Sigma-Aldrich). The lysates were passed through a 16G needle 15 times before they were centrifuged at 4° C. for 20 minutes at 20,000×g. The protein lysates were quantified using the Pierce BCA Protein Assay Kit (Thermo) according to the manufacturer's protocols and absorbance was measured using GloMax Discover Microplate Reader (Promega). Between 50 and 100 μg of protein samples were mixed with 5×SDS Laemmli loading buffer and boiled at 95° C. for 5 minutes. Proteins were separated using 4-20% SDS-PAGE gels (Bio-Rad) and transferred onto PVDF membrane (Millipore). The membrane was blocked with TBS-T supplemented with 5% non-fat dry milk primary antibody for 45 minutes at room temperature rocking before blotting with primary antibodies at 4° C. overnight. The membrane was washed in TB S-T 3 times with 5 minutes each and blotted in secondary antibodies at room temperature for 2 hours. An Azure 300 chemiluminescent western blot imaging system (Azure biosystems) was used to visualize the membrane. […]

786-O cells [3] = assay: Cell viability assay (MTT) after monoclonal antibody treatment, 786-O; format: cell-based, human; details: increasing concentrations of mAb, 2, 4 and 6 days
Description: Cell Viability Assay. After treatment with monoclonal antibodies, 786-O cells were incubated with 3-(4,5-dimethylthiazol-2-yl)-2,5-diphenylterazolium bromide (MTT, Sigma-Aldrich) to assess cell survival. Briefly, the cells were plated at density of 1000 cells/plate in 96-well plates and treated with different concentrations of monoclonal antibodies (IgG or anti-RARRES2) for indicated incubation times (2 days, 4 days and 6 days). MTT solution was diluted 5-fold in DMEM media and incubated in 37° C. incubator for 4 hours. The media was carefully removed and the precipitate was dissolved in DMSO. The solution later immediately quantified at 450 nm using the GloMax Discover Microplate Reader (Promega).

HK-2 cells = assay: Cell viability assay (MTT) after monoclonal antibody treatment, HK-2; format: cell-based, human; details: similar dose range of the antibody
786-O cells [4] = assay: Oil Red O (ORO) lipid droplet staining of cells; format: cell-based, human; details: compared to treatment with IgG
Description: Oil Red O (ORO) Lipid Droplet Staining. For tissue sections staining, the tissues were cryoprotected by incubating in 30% sucrose/PBS solution. After the tissues sank to the bottom of the vial, the tissues were embedded in OCT (Fisher Healthcare). Embedded tissue blocks were sectioned at 10 μm thickness and stored at −80° C. until ready for staining. Before ORO staining, the frozen sections were air dried and fixed in 10% neutral buffered formalin (Sigma-Aldrich, Cat #HT501128). After fixing in 100% propylene glycol (VWR, Cat #0575) twice, sections were stained with freshly made ORO solution (Sigma-Aldrich, Cat #00625) followed by staining for hematoxylin. Then, the slides were washed with distilled water and mounted using glycerin jelly (Sigma-Aldrich). The sections were visualized using a VS120 Virtual Slide Microscope scanner (Olympus). For cell staining, the cells plated in 12-well plates in triplicate were rinsed with PBS twice, and fixed with 10% formaldehyde for 1 hour. […] After the cells were air dried, 250 μL of isopropanol was added to the wells and the eluted solution was measured at 510 nm. Next, the cells were stained with sulforhodamine B as previously described, and measured at 564 nm using GloMax Discover Microplate Reader (Promega), as previously described.

786-O cells [5] = assay: Lipid reactive oxygen species, BODIPY 581/591 C11; format: cell-based, human; details: compared to treatment with IgG
Description: Lipid Reactive Oxygen Species. The cells were plated at 50,000 cells per well in 24-well plate. 10 uM BODIPY-581/591 C11 (Invitrogen, Cat #D3861) and 1 ug/mL DAPI (Millipore) were added to the media and incubated for 1 hour at 37° C., 5% CO2. Cells were imaged using Olympus FV1000 confocal scanning microscope and analyzed using Fiji software (ImageJ). 9 randomly selected images per condition were selected for analysis.

786-O orthotopic tumors = assay: Orthotopic 786-O tumor growth under left kidney capsule of nude mice (bioluminescence imaging); format: in vivo; details: for in vivo 786-O tumor growth (bioluminescence imaging): 20 mg/kg twice weekly versus IgG control mAb, n=6 each arm; for animal weight / toxicity: nude mice with orthotopic 786-O, 20 mg/kg twice weekly, weight recorded weekly
Text: Animal Studies. All animal experiments were in compliance with National Institutes of Health guidelines and were approved by the Institutional Animal Care and Use Committee (IACUC) of the University of Miami Miller School of Medicine. Six-week-old female athymic nude mice (Charles River Laboratories) were used for xenograft studies. Mice were housed (3-5 mice per cage) on a 12-hour light/dark cycle in individually ventilated cages, and with ad libitum access to food and water. The experimental holding room had temperature (21.5° C. set point) and humidity control (40% set point), and it was equipped with HEPA-filtered air. For subcutaneous tumor growth model, cells were pelleted and resuspended in a PBS/Matrigel Matrix (Corning, Cat #356234) mix at 1:1 ratio. 2×10^6 cells in a 100 μL solution were injected subcutaneously into each flank. Once palpable tumors were established, digital calipers were used to measure tumor size twice weekly. Tumor volume was calculated using the equation V=½ (length×width^2). For orthotopic tumor growth assays, soft collagen pellets containing 1×10^6 cells were implanted orthotopically under the capsules of the left kidney. Tumors were palpated and monitored twice weekly using IVIS bioluminescence imaging (Perkin Elmer). At the end of the experiments, blood was collected and both kidneys were harvested.

[6] = system: patient derived xenograft of kidney cancer; assay: Patient derived xenograft of kidney cancer, antibody versus cabozantinib (FIG. 20); format: in vivo; details: antibody 20 mg/kg twice per week versus cabo 10 mg/kg 5 times per week
786-O cells [7] = assay: BODIPY 493/503 lipid droplet imaging; format: cell-based, human; details: chemerin-silenced 786-O cells; 50 nM recombinant chemerin protein for 18 hours
Description: BODIPY Lipid Droplet Imaging. Cells were plated on round glass coverslips of 12-well plates and incubated with 1 mL of DMEM supplemented with 10% FBS. The medium was removed and cells were washed with room temperature PBS, fixed with 4% formaldehyde for 30 minutes and incubated with 300 μL of 1 uM BODIPY 493/503 (Life Technologies, Cat #D3922) for 15 minutes, protected from direct light. 1 μg/mL of DAPI (Millipore) was added for nucleus staining. The z stack images were acquired using Olympus FV1000 confocal scanning microscope and analyzed using Fiji software (ImageJ).

With CCOC(=O)c1ccc(NC2CCCCC2)c(N)c1 [Ferrostatin-1] the “rescue of proliferation defect” value ([1]; chemerin-deficient 786-O cells, 1 μM Ferrostatin-1) was “rescued the proliferation defect”.

With CCOC(=O)[C@@]1(CCCCCCOc2ccc(Cl)cc2)CO1 [etomoxir] the “rescue of DNA synthesis (EdU)” value (786-O and 769-P cells) was “rescued the reduction in DNA synthesis”, the “rescue of DNA synthesis (EdU)” value (786-O and 769-P cells; listed as Etomoxir) was “rescues tumorigenesis” and the “rescue of proliferation defect” value ([1]; chemerin-knockdown 786-O cells, 50 μM Etomoxir) was “rescued”. For the same molecule, the “rescue of proliferation defect” value ([1]; chemerin-knockdown 786-O cells, 50 μM Etomoxir, listed as Etomoxir) was “rescues proliferation defect”.

In the case of CCCCC/C=C\C/C=C\CCCCCCCC(=O)O [linoleic acid], the “HIF2α mRNA” value (HIF2α mRNA in 786-O) is reported as “opposite pattern”, the HIF2α protein [2] is reported as “opposite pattern; also recorded: decreased” and the chemerin protein [2] is reported as “opposite pattern; also recorded: decreased”.

For Clc1cccc(CN=C2Nc3ccccc3NC23CCNCC3)c1 [Liproxstatin-1], the “rescue of proliferation defect” value ([1]; chemerin-deficient 786-O cells, 0.5 μM Liproxstatin-1) was “rescued the proliferation defect”.

B1: chemerin mAb: monoclonal antibody against chemerin; heavy chain SEQ ID NO: 3, light chain SEQ ID NO: 4 (antibody, V domains shown)
VH: MEWNWVVLFLLSLTAGVYSQGQMQQSGAELVKPGASVKLSCKTSGFTFSSSYISWLKQKPRQSLEWIAWIYAGTGGTSYNQKFTGKAQLTVDTSSSTAYMQLSSLTSEDSAIYYCASFWDSWGQGTTLTVSS
VL: MRCLAEFLGLLVLWIPGAIGDIVMTQAAPSVPVTPGESVSISCRSSKSLLHSNGNTYLYWFLQRPGQSPQLLIYRMSNLASGVPDRFSGSGSGTAFTLRISRVEAEDVGVYYCMQHLEYPLTFGAGTKLELK
In the case of B1, the cell viability (786-O cells [3]) is reported as “dose-dependent reduction in cell viability”, the cell viability (HK-2 cells) is reported as “cell viability was not affected” and the “lipid droplets (ORO staining quantification)” value (786-O cells [4]) is reported as “decrease in lipid droplets”. The “lipid ROS (BODIPY 581/591 C11)” value (786-O cells [5]) was “increase in lipid ROS”, the “in vivo 786-O tumor growth (bioluminescence imaging)” value (786-O orthotopic tumors) was “significantly reduced” and the “in vivo 786-O tumor growth (bioluminescence imaging)” value (786-O orthotopic tumors; listed as monoclonal antibody (mAb) targeting chemerin) was “reduces ccRCC tumor burden”. The “tumor weight upon sacrifice” value (786-O orthotopic tumors; 20 mg/kg twice weekly versus IgG mAb, n=6 each group) was “lower tumor weights”, the “animal weight / toxicity” value (786-O orthotopic tumors) was “did not result in significant changes in animal weight” and the “animal weight / toxicity” value (786-O orthotopic tumors; listed as monoclonal antibody targeting chemerin) was “no toxicity”. The “efficacy compared with cabozantinib” value [6] was “as effective as cabo”.

B2: recombinant chemerin protein: recombinant chemerin protein used to rescue chemerin-silenced cells (protein, UniProt Q99969 21-157, looked up)
Retinoic acid receptor …: ELTEAQRRGLQVALEEFHKHPPVQWAFQETSVESAVDTPFPAGIFVRLEFKLQQTSCRKRDWKKPECKVRPNGRKRKCLACIKLGSEDKVLGRLVHCPIETQVLREAEEHQETQCLRVQRAGEDPHSFYFPGQFAFS
In the case of B2, the “rescue of lipid deposition (BODIPY 493/503)” value (786-O cells [7]) is reported as “partially rescued; also recorded: rescued the lipid deposition defect”.
